{"source": "paper PMC12519261", "biological_target": "b1b2 domain of NRP-1 (recombinant)", "test": "pull-down; Ni-NTA magnetic agarose beads coated with the b1b2 domain of NRP-1; fluorescent HLPNs incubated 1 h at room temperature with uPA added; 50 mM Tris pH 7.5, 1 M NaCl, 5 mM imidazole, 0.05% NP40; eluted with 400 mM imidazole, fluorescence of the eluate read", "note": "Where no end group is shown, it is not given here.", "data": [{"binder": "AKRGAR-OH (also: FAM label, site not given here, conjugated to surface of HLPNs)", "note": "[uPA-cleaved LinTT1 peptide with exposed CendR motif, on HLPNs]", "values": [{"measurement": "fold increase of binding by uPA treatment (against no uPA)", "result": 4, "unit": "fold"}]}]}
